Molecular target: T1, PE labeled BCMA Fc reagent (AcroBio) (UniProt Q02223 1-54, PE label)
T1 construct: not shown: Fc part of the bought reagent
T1 sequence (looked up): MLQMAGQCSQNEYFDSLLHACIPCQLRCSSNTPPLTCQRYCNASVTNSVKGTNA
Test: flow cytometry; PE labeled BCMA Fc staining of transduced T cells
From the text: T cells were interrogated for cell surface CAR expression using flow cytometry. T cells were stained using a PE labeled BCMA Fc reagent (AcroBio). […] IL2 secretion of scFv-TCR was greater than anti-BCMA CAR in coculture with medium and low BCMA expressing cell lines (FIG. 21C). […] For Live-cell imaging by IncuCyte was used to analyze tumor cell growth of HT1080.BCMA stably transduced with red reporter. The HT1080.BCMA cells grew in the presence of UTD T cells and MAGEA4 TCR-T cells.

B1: scFv-based CAR targeting human BCMA (SEQ ID NO: 101) (other)
chain: DIVLTQSPPSLAMSLGKRATISCRASESVTILGSHLIHWYQQKPGQPPTLLIQLASNVQTGVPARFSGSGSRTDFTLTIDPVEEDDVAVYYCLQSRTIPRTFGGGTKLEIKGSTSGSGKPGSGEGSTKGQIQLVQSGPELKKPGETVKISCKASGYTFTDYSINWVKRAPGKGLKWMGWINTETREPAYAYDFRGRFAFSLETSASTAYLQINNLKYEDTATYFCALDYSYAMDYWGQGTSVTVSSAAATTTPAPRPPTPAPTIASQPLSLRPEACRPAAGGAVHTRGLDFACDIYIWAPLAGTCGVLLLSLVITLYCKRGRKKLLYIFKQPFMRPVQTTQEEDGCSCRFPEEEEGGCELRVKFSRSADAPAYQQGQNQLYNELNLGRREEYDVLDKRRGRDPEMGGKPRRKNPQEGLYNELQKDKMAEAYSEIGMKGERRRGKGHDGLYQGLSTATKDTYDALHMQALPPR
notes: Chimeric antigen receptor on transduced T cells; also called anti-BCMA CAR; BCMA scFv CAR
  binding result: binds

B2: MAGEA4-reactive, HLA-A2-restricted TCR embedded with an scFv targeting human BCMA and a 2xG4S linker between the scFv and Va; TRB-P2A-BCMA.scFv-2xG4S-TRA (SEQ … (TCR)
TCR beta: DSGVTQTPKHLITATGQRVTLRCSPRSGDLSVYWYQQSLDQGLQFLIQYYNGEERAKGNILERFSAQQFPDLHSELNLSSLELGDSALYFCASSGGDGDEQFFGPGTRLTVLEDLKNVFPPEVAVFEPSKAEIAHTQKATLVCLATGFYPDHVELSWWVNGKEVHSGVSTDPQPLKEQPALNDSRYCLSSRLRVSATFWQNPRNHFRCQVQFYGLSENDEWTQDRAKPVTQIVSAEAWGRADCGITSASYHQGVLSATILYEILLGKATLYAVLVSALVLMAMVKRKDSRG
TCR alpha: DIVLTQSPPSLAMSLGKRATISCRASESVTILGSHLIHWYQQKPGQPPTLLIQLASNVQTGVPARFSGSGSRTDFTLTIDPVEEDDVAVYYCLQSRTIPRTFGGGTKLEIKGSTSGSGKPGSGEGSTKGQIQLVQSGPELKKPGETVKISCKASGYTFTDYSINWVKRAPGKGLKWMGWINTETREPAYAYDFRGRFAFSLETSASTAYLQINNLKYEDTATYFCALDYSYAMDYWGQGTSVTVSSGGGGSGGGGSAQKITQTQPGMFVQEKEAVTLDCTYDTSDPSYGLFWYKQPSSGEMIFLIYQGSYDQQNATEGRYSLNFQKARKSANLVISASQLGDSAMYFCAMSGGYTGGFKTIFGAGTRLFVKANIQNPDPAVYQLRDSKSSDKSVCLFTDFDSQTNVSQSKDSDVYITDKTVLDMRSMDFKSNSAVAWSNKSDFACANAFNNSIIPEDTFFPSSDVPCDVKLVEKSFETDTNLNFQNLLVIVLRILLLKVAGFNLLMTLRLWSS
notes: also called scFv-TCR; BCMA ScFv TCR
  binding result: binds
